Twelve molecules from publication PMC8991199, “Promiscuity mapping of the S100 protein family using a high-throughput holdup assay” (Scientific Reports, 2022) can be followed below.

Common to all, as to experiment: fluorescence polarisation; direct FP: S100 protein diluted in 50 nM labeled foldamer, 20 mM HEPES pH 7.5, 150 mM NaCl, 1 mM CaCl2, 0.5 mM TCEP, 0.01% Tween20; quadratic fit (ProFit); detection threshold Kd 1 mM
For orientation: In fluorescence polarisation assays a small probe gives low polarisation when free and higher when bound to something large.

Test [1] concerns the target fIF, fluorescently labelled H14 foldamer IF.
In test [2] the target is fIL, fluorescently labelled H14 foldamer IL.
Test [3] has as its target fRF, fluorescently labelled H14 foldamer RF.
Test [4] deals with fRR, fluorescently labelled H14 foldamer RR.
Test [5] addresses fTI, fluorescently labelled H14 foldamer TI.
Test [6] has as its target fTM, fluorescently labelled H14 foldamer TM.
Test [7] deals with fTW, fluorescently labelled H14 foldamer TW.
In test [8] the target is fVL, fluorescently labelled H14 foldamer VL.
For test [9], the target named is fWL, fluorescently labelled H14 foldamer WL.
For test [10], the target named is fWW, fluorescently labelled H14 foldamer WW.
The target in test [11] is fYF, fluorescently labelled H14 foldamer YF.

B1: S100Z (natural protein)
chain: MPTQLEMAMDTMIRIFHRYSGKERKRFKLSKGELKLLLQRELTEFLSCQKETQLVDKIVQDLDANKDNEVDFNEFVVMVAALTVACNDYFVEQLKKKGK
With B1, the Kd – broadly, the free concentration of one partner at which half of the binding sites on the other are occupied at equilibrium, for simple one-to-one binding – in test [1] is 480 µM; in test [2], greater than 1000 µM; in [3], 890 µM; in test [4], greater than 1000 µM; in test [5], greater than 1000 µM; in test [6], greater than 1000 µM. In addition, the Kd in test [7] is 520 µM; in test [8], greater than 1000 µM; in [9] it was greater than 1000 µM; in test [10] it was greater than 1000 µM; in test [11], greater than 1000 µM.

B2: S100A13 (natural protein)
chain: MAAEPLTELEESIETVVTTFFTFARQEGRKDSLSVNEFKELVTQQLPHLLKDVGSLDEKMKSLDVNQDSELKFNEYWRLIGELAKEIRKKKDLKIRKK
B2: the Kd in test [1], in test [2], in test [3], in [4], in test [5] and in test [6] was greater than 1000 µM throughout. For the same molecule, the Kd in test [7], in [8], in test [9], in test [10] and in [11] was greater than 1000 µM in each case.

B3: S100B (natural protein)
chain: MSELEKAMVALIDVFHQYSGREGDKHKLKKSELKELINNELSHFLEEIKEQEVVDKVMETLDNDGDGECDFQEFMAFVAMVTTACHEFFEHE
On to B3, for which the Kd was 140 µM in test [1]; 63 µM in [2]; 230 µM in test [3]; 210 µM in test [4]; greater than 1000 µM in test [5]; greater than 1000 µM in test [6]. Further, the Kd is 280 µM in test [7]; 50 µM in [8]; 11 µM in [9]; greater than 1000 µM in test [10]; 28 µM in [11].

B4: S100A16 (natural protein)
chain: MSDCYTELEKAVIVLVENFYKYVSKYSLVKNKISKSSFREMLQKELNHMLSDTGNRKAADKLIQNLDANHDGRISFDEYWTLIGGITGPIAKLIHEQEQQSSS
B4: the Kd in test [1], in test [2], in test [3], in [4], in test [5] and in test [6] was greater than 1000 µM each time. For the same molecule, the equilibrium dissociation constant (Kd) in [7] is greater than 1000 µM; in test [8], greater than 1000 µM; in test [9], 300 µM; in [10] it was greater than 1000 µM; in test [11], greater than 1000 µM.

B5: S100A3 (natural protein)
chain: MARPLEQAVAAIVCTFQEYAGRCGDKYKLCQAELKELLQKELATWTPTEFRECDYNKFMSVLDTNKDCEVDFVEYVRSLACLCLYCHEYFKDCPSEPPCSQ
For the molecule B5, the equilibrium dissociation constant (Kd) is 180 µM in [1]; greater than 1000 µM in test [2]; greater than 1000 µM in test [3]; greater than 1000 µM in test [4]; greater than 1000 µM in test [5]; greater than 1000 µM in test [6]. Moreover, the Kd is greater than 1000 µM in [7]; greater than 1000 µM in [8]; greater than 1000 µM in test [9]; 310 µM in [10]; greater than 1000 µM in test [11].

B6: S100A8 (natural protein)
chain: MLTELEKALNSIIDVYHKYSLIKGNFHAVYRDDLKKLLETECPQYIRKKGADVWFKELDINTDGAVNFQEFLILVIKMGVAAHKKSHEESHKE
Consider B6, for which the Kd in test [1] was 750 µM; in test [2], greater than 1000 µM; in [3] it was greater than 1000 µM; in [4], greater than 1000 µM; in test [5], greater than 1000 µM; in test [6], greater than 1000 µM. Further, the Kd in [7] was 770 µM; in test [8], greater than 1000 µM; in test [9], 74 µM; in test [10] it was greater than 1000 µM; in [11] it was 180 µM.

B7: S100A11 (natural protein)
chain: MAKISSPTETERCIESLIAVFQKYAGKDGYNYTLSKTEFLSFMNTELAAFTKNQKDPGVLDRMMKKLDTNSDGQLDFSEFLNLIGGLAMACHDSFLKAVPSQKRT
On to B7, for which the dissociation constant (Kd) in test [1] was 280 µM; in [2], greater than 1000 µM; in test [3], 1000 µM; in test [4] it was greater than 1000 µM; in [5], greater than 1000 µM; in test [6] it was greater than 1000 µM. For the same molecule, the dissociation constant (Kd) in test [7] was 570 µM; in test [8], greater than 1000 µM; in test [9], greater than 1000 µM; in [10], greater than 1000 µM; in test [11] it was greater than 1000 µM.

B8: S100A5 (natural protein)
chain: METPLEKALTTMVTTFHKYSGREGSKLTLSRKELKELIKKELCLGEMKESSIDDLMKSLDKNSDQEIDFKEYSVFLTMLCMAYNDFFLEDNK
As to B8, the Kd turned out to be 27 µM in test [1]; 75 µM in test [2]; 46 µM in [3]; 45 µM in test [4]; 270 µM in test [5]; 200 µM in test [6]. Besides, the Kd in test [7] was 62 µM; in test [8], 110 µM; in [9], 14 µM; in test [10], 77 µM; in test [11], 32 µM.

B9: S100G (natural protein)
chain: MSTKKSPEELKRIFEKYAAKEGDPDQLSKDELKLLIQAEFPSLLKGPNTLDDLFQELDKNGDGEVSFEEFQVLVKKISQ
With B9, the Kd in test [1], in test [2], in test [3], in test [4], in test [5] and in test [6] was greater than 1000 µM throughout. For the same molecule, the Kd in [7], in test [8], in test [9], in test [10] and in test [11] was greater than 1000 µM in each case.

B10: S100P (natural protein)
chain: MTELETAMGMIIDVFSRYSGSEGSTQTLTKGELKVLMEKELPGFLQSGKDKDAVDKLLKDLDANGDAQVDFSEFIVFVAAITSACHKYFEKAGLK
Turning to B10, the Kd in [1] was 140 µM; in test [2] it was 330 µM; in test [3], 190 µM; in test [4], greater than 1000 µM; in [5] it was greater than 1000 µM; in test [6], greater than 1000 µM. Also, the equilibrium dissociation constant (Kd) in test [7] was 170 µM; in test [8] it was greater than 1000 µM; in test [9], 75 µM; in [10], 190 µM; in [11], 79 µM.

B11: S100A12 (natural protein)
chain: MTKLEEHLEGIVNIFHQYSVRKGHFDTLSKGELKQLLTKELANTIKNIKDKAVIDEIFQGLDANQDEQVDFQEFISLVAIALKAAHYHTHKE
For B11, the dissociation constant (Kd) is 590 µM in test [1]; greater than 1000 µM in test [2]; greater than 1000 µM in test [3]; greater than 1000 µM in test [4]; greater than 1000 µM in test [5]; greater than 1000 µM in test [6]. Further, the dissociation constant Kd in test [7] is greater than 1000 µM; in test [8], greater than 1000 µM; in test [9], 250 µM; in [10], greater than 1000 µM; in [11], greater than 1000 µM.

B12: S100A14 (natural protein)
chain: MGQCRSANAEDAQEFSDVERAIETLIKNFHQYSVEGGKETLTPSELRDLVTQQLPHLMPSNCGLEEKIANLGSCNDSKLEFRSFWELIGEAAKSVKLERPVRGH
As to B12, the Kd in test [1], in test [2], in test [3], in [4], in test [5] and in [6] was greater than 1000 µM each time. For the same molecule, the Kd in test [7], in test [8], in [9], in test [10] and in test [11] was greater than 1000 µM throughout.
